In patent US20260209293A1 (Novo Nordisk, published 2026):
*1 amine or outer side, *2 acyl side, *3 side chain or, on linkers, in order; H or OH if unused. Side-chain parts run from the residue outwards. The star is where a group is joined. C20 diacid = O=C(O)CCCCCCCCCCCCCCCCCCC(=O)*; C18 diacid = O=C(O)CCCCCCCCCCCCCCCCC(=O)*; γGlu = O=C(O)[C@H](CCC(=O)[*:2])N[*:1]

T1: human amylin-3(a) receptor (human, UniProt P30988 25-474; O60896 24-148)
T1 sequence (looked up) 1: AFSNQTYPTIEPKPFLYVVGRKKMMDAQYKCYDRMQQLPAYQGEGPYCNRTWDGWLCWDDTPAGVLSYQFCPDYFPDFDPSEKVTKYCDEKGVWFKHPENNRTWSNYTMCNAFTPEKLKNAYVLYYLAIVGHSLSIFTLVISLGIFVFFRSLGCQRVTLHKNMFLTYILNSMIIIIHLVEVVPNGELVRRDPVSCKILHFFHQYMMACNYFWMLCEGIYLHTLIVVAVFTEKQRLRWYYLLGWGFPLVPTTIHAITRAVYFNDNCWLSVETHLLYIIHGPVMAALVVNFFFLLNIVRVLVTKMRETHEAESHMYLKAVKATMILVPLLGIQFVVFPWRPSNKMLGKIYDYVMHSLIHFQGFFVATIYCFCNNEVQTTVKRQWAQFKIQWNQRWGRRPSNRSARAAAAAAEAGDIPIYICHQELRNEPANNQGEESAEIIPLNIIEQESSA
T1 sequence (looked up) 2: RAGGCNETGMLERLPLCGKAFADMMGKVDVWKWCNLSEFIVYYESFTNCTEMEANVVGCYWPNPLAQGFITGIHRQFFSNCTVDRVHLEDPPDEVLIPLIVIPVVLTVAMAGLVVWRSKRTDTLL

T2: human calcitonin receptor (a) (human, UniProt P30988 25-474)
T2 sequence (looked up): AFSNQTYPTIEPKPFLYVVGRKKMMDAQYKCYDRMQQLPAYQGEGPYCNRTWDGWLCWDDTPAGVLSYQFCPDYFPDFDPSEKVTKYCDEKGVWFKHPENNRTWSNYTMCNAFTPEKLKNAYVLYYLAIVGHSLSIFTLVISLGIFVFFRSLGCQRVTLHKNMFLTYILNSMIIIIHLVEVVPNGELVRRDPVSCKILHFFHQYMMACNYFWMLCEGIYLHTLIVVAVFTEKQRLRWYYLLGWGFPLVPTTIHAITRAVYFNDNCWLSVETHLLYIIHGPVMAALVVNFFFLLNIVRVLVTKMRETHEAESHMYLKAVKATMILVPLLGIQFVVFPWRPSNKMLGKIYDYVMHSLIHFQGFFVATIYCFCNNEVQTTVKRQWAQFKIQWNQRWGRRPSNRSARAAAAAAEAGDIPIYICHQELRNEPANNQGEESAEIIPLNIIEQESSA

B1: N^1-acetyl,N{Epsilon-25}-[(4S)-4-carboxy-4-(17-carboxyheptadecanoylamino)butanoyl]-[Ala1,Ser2,His3,Leu4,Ser5,Ala7,Gln8,Ala10,Glu14,His17,Asp21,Lys25,Pro28,Pro29 … (peptide)
peptide: Ac-ASHLSTAQTARLAEFLHHSSDNFGK([γGlu-C18 diacid])ILPPTDVGSNTP-NH2
SMILES: CC[C@H](C)[C@H](NC(=O)[C@H](CCCCNC(=O)CC[C@H](NC(=O)CCCCCCCCCCCCCCCCC(=O)O)C(=O)O)NC(=O)CNC(=O)[C@H](Cc1ccccc1)NC(=O)[C@H](CC(N)=O)NC(=O)[C@H](CC(=O)O)NC(=O)[C@H](CO)NC(=O)[C@H](CO)NC(=O)[C@H](Cc1c[nH]cn1)NC(=O)[C@H](Cc1c[nH]cn1)NC(=O)[C@H](CC(C)C)NC(=O)[C@H](Cc1ccccc1)NC(=O)[C@H](CCC(=O)O)NC(=O)[C@H](C)NC(=O)[C@H](CC(C)C)NC(=O)[C@H](CCCNC(=N)N)NC(=O)[C@H](C)NC(=O)[C@@H](NC(=O)[C@H](CCC(N)=O)NC(=O)[C@H](C)NC(=O)[C@@H](NC(=O)[C@H](CO)NC(=O)[C@H](CC(C)C)NC(=O)[C@H](Cc1c[nH]cn1)NC(=O)[C@H](CO)NC(=O)[C@H](C)NC(C)=O)[C@@H](C)O)[C@@H](C)O)C(=O)N[C@@H](CC(C)C)C(=O)N1CCC[C@H]1C(=O)N1CCC[C@H]1C(=O)N[C@H](C(=O)N[C@@H](CC(=O)O)C(=O)N[C@H](C(=O)NCC(=O)N[C@@H](CO)C(=O)N[C@@H](CC(N)=O)C(=O)N[C@H](C(=O)N1CCC[C@H]1C(N)=O)[C@@H](C)O)C(C)C)[C@@H](C)O
B2: N^1-acetyl,N{Epsilon-25}-[(4S)-4-carboxy-4-(17-carboxyheptadecanoylamino)butanoyl]-[Ala1,Ser2,His3,Leu4,Ser5,Ala7,Gln8,Ala10,Glu14,His17,Asp21,Pro22,Lys25,Pro27 … (peptide)
peptide: Ac-ASHLSTAQTARLAEFLHHSSDPFGK([γGlu-C18 diacid])IPSSTDVGPDTP-NH2
SMILES: CC[C@H](C)[C@H](NC(=O)[C@H](CCCCNC(=O)CC[C@H](NC(=O)CCCCCCCCCCCCCCCCC(=O)O)C(=O)O)NC(=O)CNC(=O)[C@H](Cc1ccccc1)NC(=O)[C@@H]1CCCN1C(=O)[C@H](CC(=O)O)NC(=O)[C@H](CO)NC(=O)[C@H](CO)NC(=O)[C@H](Cc1c[nH]cn1)NC(=O)[C@H](Cc1c[nH]cn1)NC(=O)[C@H](CC(C)C)NC(=O)[C@H](Cc1ccccc1)NC(=O)[C@H](CCC(=O)O)NC(=O)[C@H](C)NC(=O)[C@H](CC(C)C)NC(=O)[C@H](CCCNC(=N)N)NC(=O)[C@H](C)NC(=O)[C@@H](NC(=O)[C@H](CCC(N)=O)NC(=O)[C@H](C)NC(=O)[C@@H](NC(=O)[C@H](CO)NC(=O)[C@H](CC(C)C)NC(=O)[C@H](Cc1c[nH]cn1)NC(=O)[C@H](CO)NC(=O)[C@H](C)NC(C)=O)[C@@H](C)O)[C@@H](C)O)C(=O)N1CCC[C@H]1C(=O)N[C@@H](CO)C(=O)N[C@@H](CO)C(=O)N[C@H](C(=O)N[C@@H](CC(=O)O)C(=O)N[C@H](C(=O)NCC(=O)N1CCC[C@H]1C(=O)N[C@@H](CC(=O)O)C(=O)N[C@H](C(=O)N1CCC[C@H]1C(N)=O)[C@@H](C)O)C(C)C)[C@@H](C)O
B3: N^1-[(4S)-4-carboxy-4-(19-carboxynonadecanoylamino)butanoyl]-[Ala1,Ser2,His3,Leu4,Ser5,Ala7,Gln8,Ala10,Glu14,His17,Asp21,Pro22,Pro27,Asp31, … (peptide)
peptide: {C20 diacid-γGlu}-ASHLSTAQTARLAEFLHHSSDPFGAIPSSTDVGPDTP-NH2
SMILES: CC[C@H](C)[C@H](NC(=O)[C@H](C)NC(=O)CNC(=O)[C@H](Cc1ccccc1)NC(=O)[C@@H]1CCCN1C(=O)[C@H](CC(=O)O)NC(=O)[C@H](CO)NC(=O)[C@H](CO)NC(=O)[C@H](Cc1c[nH]cn1)NC(=O)[C@H](Cc1c[nH]cn1)NC(=O)[C@H](CC(C)C)NC(=O)[C@H](Cc1ccccc1)NC(=O)[C@H](CCC(=O)O)NC(=O)[C@H](C)NC(=O)[C@H](CC(C)C)NC(=O)[C@H](CCCNC(=N)N)NC(=O)[C@H](C)NC(=O)[C@@H](NC(=O)[C@H](CCC(N)=O)NC(=O)[C@H](C)NC(=O)[C@@H](NC(=O)[C@H](CO)NC(=O)[C@H](CC(C)C)NC(=O)[C@H](Cc1c[nH]cn1)NC(=O)[C@H](CO)NC(=O)[C@H](C)NC(=O)CC[C@H](NC(=O)CCCCCCCCCCCCCCCCCCC(=O)O)C(=O)O)[C@@H](C)O)[C@@H](C)O)C(=O)N1CCC[C@H]1C(=O)N[C@@H](CO)C(=O)N[C@@H](CO)C(=O)N[C@H](C(=O)N[C@@H](CC(=O)O)C(=O)N[C@H](C(=O)NCC(=O)N1CCC[C@H]1C(=O)N[C@@H](CC(=O)O)C(=O)N[C@H](C(=O)N1CCC[C@H]1C(N)=O)[C@@H](C)O)C(C)C)[C@@H](C)O
B4: N^1-[(4S)-4-carboxy-4-(17-carboxyheptadecanoylamino)butanoyl]-[Ala1,Ser2,His3,Leu4,Ser5,Ala7,Gln8,Ala10,Glu14,His17,Pro25,Pro28,Pro29,Asp31,Glu35,Pro37],des-(19 … (peptide)
peptide: {C18 diacid-γGlu}-ASHLSTAQTARLAEFLHHFGPILPPTDVGSETP-NH2
SMILES: CC[C@H](C)[C@H](NC(=O)[C@@H]1CCCN1C(=O)CNC(=O)[C@H](Cc1ccccc1)NC(=O)[C@H](Cc1c[nH]cn1)NC(=O)[C@H](Cc1c[nH]cn1)NC(=O)[C@H](CC(C)C)NC(=O)[C@H](Cc1ccccc1)NC(=O)[C@H](CCC(=O)O)NC(=O)[C@H](C)NC(=O)[C@H](CC(C)C)NC(=O)[C@H](CCCNC(=N)N)NC(=O)[C@H](C)NC(=O)[C@@H](NC(=O)[C@H](CCC(N)=O)NC(=O)[C@H](C)NC(=O)[C@@H](NC(=O)[C@H](CO)NC(=O)[C@H](CC(C)C)NC(=O)[C@H](Cc1c[nH]cn1)NC(=O)[C@H](CO)NC(=O)[C@H](C)NC(=O)CC[C@H](NC(=O)CCCCCCCCCCCCCCCCC(=O)O)C(=O)O)[C@@H](C)O)[C@@H](C)O)C(=O)N[C@@H](CC(C)C)C(=O)N1CCC[C@H]1C(=O)N1CCC[C@H]1C(=O)N[C@H](C(=O)N[C@@H](CC(=O)O)C(=O)N[C@H](C(=O)NCC(=O)N[C@@H](CO)C(=O)N[C@@H](CCC(=O)O)C(=O)N[C@H](C(=O)N1CCC[C@H]1C(N)=O)[C@@H](C)O)C(C)C)[C@@H](C)O
B5: N^1-[(4S)-4-carboxy-4-(17-carboxyheptadecanoylamino)butanoyl]-[Ala1,Ser2,His3,Leu4,Ser5,Ala7,Gln8,Ala10,Glu14, His17, Pro25, Pro28, … (peptide)
peptide: {C18 diacid-γGlu}-ASHLSTAQTARLAEFLHHFGPILPPTDVGSETY-NH2
SMILES: CC[C@H](C)[C@H](NC(=O)[C@@H]1CCCN1C(=O)CNC(=O)[C@H](Cc1ccccc1)NC(=O)[C@H](Cc1c[nH]cn1)NC(=O)[C@H](Cc1c[nH]cn1)NC(=O)[C@H](CC(C)C)NC(=O)[C@H](Cc1ccccc1)NC(=O)[C@H](CCC(=O)O)NC(=O)[C@H](C)NC(=O)[C@H](CC(C)C)NC(=O)[C@H](CCCNC(=N)N)NC(=O)[C@H](C)NC(=O)[C@@H](NC(=O)[C@H](CCC(N)=O)NC(=O)[C@H](C)NC(=O)[C@@H](NC(=O)[C@H](CO)NC(=O)[C@H](CC(C)C)NC(=O)[C@H](Cc1c[nH]cn1)NC(=O)[C@H](CO)NC(=O)[C@H](C)NC(=O)CC[C@H](NC(=O)CCCCCCCCCCCCCCCCC(=O)O)C(=O)O)[C@@H](C)O)[C@@H](C)O)C(=O)N[C@@H](CC(C)C)C(=O)N1CCC[C@H]1C(=O)N1CCC[C@H]1C(=O)N[C@H](C(=O)N[C@@H](CC(=O)O)C(=O)N[C@H](C(=O)NCC(=O)N[C@@H](CO)C(=O)N[C@@H](CCC(=O)O)C(=O)N[C@H](C(=O)N[C@@H](Cc1ccc(O)cc1)C(N)=O)[C@@H](C)O)C(C)C)[C@@H](C)O

Experiments:
[1] = target: T1, human amylin-3(a) receptor; assay: cell-based or functional assay
[2] = target: T2, human calcitonin receptor (a); assay: cell-based or functional assay

Binder | hAmyR3 potency, EC50 (pM); CRE-luciferase reporter in BHK cells [1] [pM] | hCalcR potency, EC50 (pM); CRE-luciferase reporter in BHK cells [2] [pM]
B1 | 1.16 | 1.16
B2 | 1.38 | 1.29
B3 | 1.05 | 1.41
B4 | 1.06 | 1.76
B5 | 2.11 | 2.78
